Assay results reported in patent US20130266566A1 (AbbVie / Abbott, published 2013).
Changes are numbered by the printed parent chain.

T1: rat PAI-1 (rat, UniProt P20961 24-402)
T1 sequence: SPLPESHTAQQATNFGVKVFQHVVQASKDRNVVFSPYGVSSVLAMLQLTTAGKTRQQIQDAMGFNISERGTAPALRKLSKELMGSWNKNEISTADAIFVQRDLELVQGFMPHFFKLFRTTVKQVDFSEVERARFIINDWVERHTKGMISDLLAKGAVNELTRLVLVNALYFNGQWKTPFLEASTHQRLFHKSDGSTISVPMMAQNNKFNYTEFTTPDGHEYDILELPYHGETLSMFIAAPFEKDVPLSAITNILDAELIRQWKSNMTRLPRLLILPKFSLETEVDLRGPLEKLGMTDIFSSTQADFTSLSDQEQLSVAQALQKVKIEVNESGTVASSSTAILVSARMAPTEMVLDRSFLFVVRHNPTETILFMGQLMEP

T2: mouse PAI-1 (mouse, UniProt P22777 24-401)
T2 sequence: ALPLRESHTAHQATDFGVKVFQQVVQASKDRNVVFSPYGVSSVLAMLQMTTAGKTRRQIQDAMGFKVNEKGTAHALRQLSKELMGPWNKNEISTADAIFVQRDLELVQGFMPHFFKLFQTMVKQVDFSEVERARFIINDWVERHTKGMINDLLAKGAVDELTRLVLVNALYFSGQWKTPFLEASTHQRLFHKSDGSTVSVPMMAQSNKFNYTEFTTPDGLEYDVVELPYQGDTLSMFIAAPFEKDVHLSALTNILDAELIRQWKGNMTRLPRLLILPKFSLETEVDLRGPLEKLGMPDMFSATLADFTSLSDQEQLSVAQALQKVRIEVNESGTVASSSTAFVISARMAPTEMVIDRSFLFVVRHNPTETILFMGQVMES

B1: Antibody 11 scFv (scFv)
chain: QVQLQQSGAEVKKPGSSVKVSCKASGGTFSSYAISWMRQAPGQGLEWMGGIIPIFGTANYAQKFQGRVTITADESTSTAYMELSGLRSEDTAVYYCAREKRQWLEGHFDYWGRGTPVTVSSDIQMIQSPSFLSASTGDRVTITCQASEGIYHELAWYQQKPGKAPKLLIYRASSLASGAPSRFSGSGSGTDFTLTISSLQPDDFATYYCQQYSNYPLTFGGGTKLEIK
B2: Antibody 12 scFv (scFv)
chain: B1 chain with M37V, I54T, G56P, I126T, T136I, Q145R, E153N
B3: Antibody 13 scFv (scFv)
chain: B1 chain with M37V, I54T, G85D, I126T, T136I, Q145R, E153S
B4: Antibody 17 scFv (scFv)
chain: B1 chain with M37V, I54T, I126T, T136I, Q145R
B5: Antibody 18 scFv (scFv)
chain: B1 chain with M37V, I54T, F64L, I126T, T136I, Q145R, E153A
B6: Antibody 19 scFv (scFv)
chain: B1 chain with M37V, G56D, K100R, Q124R, I126T, T136I, Q145R, D191E
B7: Antibody 21 scFv (scFv)
chain: B1 chain with Q1P, M37V, I54T, I126A, T136I, Q145R, E153N
B8: Antibody 02 IgG1, not germlined (antibody, V domains shown)
VH: QVQLVQSGAEVKKPGSSVKVSCKASGGTFSSYAISWVRQAPGQGLEWMGGIIPTFGTANYAQKFQGRVTITADESTSTAYMELSSLRSEDTAVYYCAREKRQWLEGHFDYWGRGTLVTVSS
VL: DIQMTQSPSTLSASVGDRVTITCRASEGIYHSLAWYQQKPGKAPKLLIYKASSLASGVPSRFSGSGSGTEFTLTISSLQPDDFATYYCQQYSDYPLTFGGGTKVEIK
B9: Antibody 01 IgG1, not germlined (antibody, V domains shown)
VH: B8 VH with T54I
VL: B8 VL with H31R, D93N

Experiments:
Assay in all cases: cell-based or functional assay
cynomolgus PAI-1 = cynomolgus PAI-1 (cynomolgus, UniProt P05121 24-402 (human entry), limits assumed)
rat PAI-1 = molecular target: T1, rat PAI-1
mouse PAI-1 = molecular target: T2, mouse PAI-1
[1] = molecular target: active human PAI-1, recombinant, wild-type, non-glycosylated (E. coli) (human, UniProt P05121 24-402)

Row | Binder | Chromogenic (IC50 in nM) cyno (cynomolgus PAI-1) | Chromogenic IC50 ratio cyno/human (cynomolgus PAI-1) | Chromogenic (IC50 in nM) rat (rat PAI-1) | Chromogenic IC50 ratio rat/human (rat PAI-1) | Chromogenic (IC50 in nM) mouse (mouse PAI-1) | Chromogenic IC50 ratio mouse/human (mouse PAI-1) | Chromogenic (IC50 in nM) human [1]
1 | B1 | 43.8 nM | 0.4 fold | 59.5 nM | 0.6 fold | 33.6 nM | 0.3 fold | 102 nM
2 | B2 | 0.6 nM | 0.3 fold | 78.2 nM | 34.4 fold | 27.8 nM | 12.2 fold | 2.3 nM
3 | B3 | 1.2 nM | 0.4 fold | 140 nM | 48.6 fold | 247 nM | 85.8 fold | 2.9 nM
4 | B4 | 41.5 nM | 0.6 fold | 24.9 nM | 0.3 fold | 26.2 nM | 0.4 fold | 71.5 nM
5 | B5 | 0.5 nM | 0.4 fold |  |  | 319 nM | 255 fold | 
6 | B6 | 10.8 nM | 0.4 fold | 7.9 nM | 0.3 fold | 6.4 nM | 0.2 fold | 26 nM
7 | B7 | 1.6 nM | 0.4 fold | 49.2 nM | 12 fold | 32.2 nM | 7.9 fold | 4.1 nM
8 | B8 |  |  |  | 317 fold |  | 104 fold | 
9 | B9 |  | 0.4 fold |  | 66.2 fold |  | 20 fold | 
